From publication PMC11699195

Assay: immunoblot, H460, A549, HCC827 cells
Conditions: glycan gained; control: mock vector

PD-L1: RPN1-HA overexpression
expression_or_secretion: increases
